Here are results for 1 molecule from PMC1238745 (2005).

Assay in all cases: NMR
The target of one test is T1, Bax BH3 peptide BH3 (Homo sapiens, UniProt Q07812).
T1 chain: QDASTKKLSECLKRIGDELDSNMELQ

The next test deals with T2, Bak BH3 peptide BH3 (Homo sapiens, UniProt Q16611).
T2 chain: GQVGRQLAIIGDDINR

The target of a further test is T3, Bad BH3 peptide BH3 (Homo sapiens, UniProt Q92934).
T3 chain: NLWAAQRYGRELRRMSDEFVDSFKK

B1: v-Bcl-2 (protein)
chain: MSHKKSGTYWATLITAFLKTVSKVEELDCVDSAVLVDVSKIITLTQEFRRHYDSVYRADYGPALKNWKRDLSKLFTSLFVDVINSGRIVGFFDVGRYVCEEVLCPGSWTEDHELLNDCMTHFFIENNLMNHFPLEDIFLAQRKFQTTGFTFLLHALAKVLPRIYSGNVIYV
As for B1, the figures for the equilibrium dissociation constant (Kd) in the test with Bax BH3 peptide BH3, with Bak BH3 peptide BH3 and in the test with Bad BH3 peptide BH3 were < 5 µM, < 5 µM and > 300 µM, respectively.
